Experimental data published in publication PMC10770727.

How the values were obtained:
[1] = biological target: recombinant human calreticulin (amino acids 18 to 417, N-terminal His-tag) (human) (UniProt P27797)
[2] = biological target: bovine liver calreticulin (bovine) (UniProt P52193); test: SPR; bovine CRT or human recombinant S100A10 amine-coupled to CM5 chips (1000 to 1300 RU), BIACORE 3000; Glu-plasminogen (0-1 uM) or 0.5 uM bovine serum albumin flowed at 50 ul/min; 25 °C; HBS-ET (10 mM Hepes pH 7.4, 150 mM NaCl, 3 mM EDTA, 0.05% Tween-20); apparent KD from steady-state affinity model
Sequence of UniProt P52193 (P52193 18-417): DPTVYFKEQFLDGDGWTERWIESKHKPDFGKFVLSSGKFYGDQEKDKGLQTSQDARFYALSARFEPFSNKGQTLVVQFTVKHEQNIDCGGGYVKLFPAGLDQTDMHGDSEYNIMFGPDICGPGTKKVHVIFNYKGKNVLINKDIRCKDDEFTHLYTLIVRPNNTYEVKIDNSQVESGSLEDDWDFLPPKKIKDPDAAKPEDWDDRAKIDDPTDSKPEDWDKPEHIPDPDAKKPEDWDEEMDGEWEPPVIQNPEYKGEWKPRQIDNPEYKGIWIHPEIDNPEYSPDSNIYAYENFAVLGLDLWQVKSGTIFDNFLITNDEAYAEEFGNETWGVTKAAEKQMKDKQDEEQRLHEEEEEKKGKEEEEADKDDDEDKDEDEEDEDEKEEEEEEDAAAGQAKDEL

[3] = biological target: human recombinant S100A10 (human) (UniProt P60903); test: as above
Sequence of UniProt P60903 (P60903 whole entry): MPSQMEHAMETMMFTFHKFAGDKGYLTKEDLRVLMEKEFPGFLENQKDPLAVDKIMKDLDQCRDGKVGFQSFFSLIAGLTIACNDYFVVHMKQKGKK

Sequence of UniProt P27797 (P27797 18-417): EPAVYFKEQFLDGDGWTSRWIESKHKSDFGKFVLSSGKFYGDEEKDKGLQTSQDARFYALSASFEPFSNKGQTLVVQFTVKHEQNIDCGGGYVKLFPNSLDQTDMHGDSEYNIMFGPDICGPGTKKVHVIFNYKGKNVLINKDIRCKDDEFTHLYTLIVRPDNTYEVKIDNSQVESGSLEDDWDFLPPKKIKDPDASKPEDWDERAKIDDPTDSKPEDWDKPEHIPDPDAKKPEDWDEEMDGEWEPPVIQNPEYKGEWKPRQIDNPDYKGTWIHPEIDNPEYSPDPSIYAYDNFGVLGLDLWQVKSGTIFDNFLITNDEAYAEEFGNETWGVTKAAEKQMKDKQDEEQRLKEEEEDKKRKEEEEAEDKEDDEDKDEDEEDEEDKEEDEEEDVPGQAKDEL

With human Glu-plasminogen (natural protein) the inhibition by 10 mM ε-ACA of the stimulation of tPA-dependent plasminogen activation by 0.5 μM recombinant human CRT [1] was 80%, the Kd [2] was 1900 nM and the Kd [3] was 500 nM.
